T1: HA-GCN4 mAPRIL (amino acid residues 96-241) (mouse, UniProt Q9D777 96-241, Assembles as a homotrimer through the GCN4 zipper; one protomer is given.)
T1 construct: Bought (R&D Systems); also called HA-tagged mouse APRIL (R&D Systems); recombinant mouse APRIL; not shown: N-terminal HA tag and GCN4 isoleucine-zipper trimerisation domain, with any linker, of the bought R&D Systems protein
T1 sequence: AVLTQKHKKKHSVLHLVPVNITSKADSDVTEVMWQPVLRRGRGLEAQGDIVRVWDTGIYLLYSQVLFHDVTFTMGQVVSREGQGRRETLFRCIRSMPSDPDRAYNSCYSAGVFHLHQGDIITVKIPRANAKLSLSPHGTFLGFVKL

B1: monoclonal antibody 3530 (antibody, mouse IgG2, V domains shown)
VH: QVQLQQSGAELVRPGASVKLSCKASGYTFTDHEMHWVRQTPVHGLEWIGVIDPDTGDTTYNQKFKGKATLTADKSSSTAYMDLRSLTSEDSAVFYCTRWTGGDYWGHGTTLTVSS
VL: DAVMTQTPLSLSVTIGQPASISCKSSQSLLYSDGKTYLNWFQQRPGQSPKRLMYQVSKLDPGIPDRFSGSGSETDFTLKISRVEAEDLGVYYCLQGTYYPYTFGSGTKLEIK
B2: monoclonal antibody 4540 (antibody, V domains shown)
VH: QVQLQQSGPELVKPGASVKISCKASGYTFADYYINWVKQRPGQGLEWIGWIFPGSGSTYYNEKFKGKATLTVDKSSSTAYMLLSSLTSEDSAVYFCARGDSGRAMDYWGQGTSVTVSS
VL: DIQMTQSPSSLSASLGGKVTITCKASQDINKYIAWYQHKPGKGPRLLIHYTSTLQSGIPSRFSGSGSGRDYSFSISNLEPEDNATYYCLQYDNLLTFGAGTKLELK
notes: mouse-derived

How the values were obtained:
[1] = target: T1, HA-GCN4 mAPRIL (amino acid residues …); experiment: blocking ELISA; blocked: mouse APRIL binding to human BCMA-Fc
Procedure: Recombinant TACI-Fc or BCMA-Fc was coated on 96 well plates in 0.1 M carbonate-bicarbonate buffer (pH 9.6), overnight at 4° C. Plates were washed three times with 1×PBST (PBS+0.025% Tween 20) followed by blocking with 1% BSA in 1×PBS, 37° C. for 1 hour. All subsequent wash steps were carried out with 1×PBST. To assess antibody blocking, either 15 ng/mL or 50 ng/mL HA-GCN4-huAPRIL was preincubated with varying antibody concentrations ranging from 0.03-30 μg/mL in binding buffer comprised of 1% BSA and 0.025% Tween-20 in 1×PBS. Preincubation was carried out at 30° C. for 1 hour with mixing. Antibody-APRIL premix with 50 ng/mL APRIL or 15 ng/mL APRIL was then added to TACI-Fc coated or BCMA-Fc coated plates, respectively, and incubated for an additional hour at 30° C. HA-tagged APRIL binding to either receptor was quantified using a goat polyclonal anti-HA tag-HRP antibody (Abcam) added at a 1:10000 dilution followed by colorimetric development using 100 μl/well of freshly prepared TMB substrate (KPL) carried out for up to 30 minutes at room temperature before quenching enzymatic reaction by the addition of 1N sulfuric acid. ELISA signal was quantified by absorbance at 450 nm. ELISA data was analyzed by non-linear regression. IC₅₀ values were calculated based on a 4 parameter fit of antibody titration curves. […]

[2] = target: T1, HA-GCN4 mAPRIL (amino acid residues …); experiment: indirect ELISA on mouse APRIL; row printed 4504, legend paragraph 738 says 4540

Binder	IC50 (read off the curve) [1]	EC50 [2]
B1	~0.3 mg/L	
B2		1.51 pM

— US20170145086A1 (VISTERRA, published 2017)
